Reference: patent US7595158B2, “Bcl2L12 polypeptide activators and inhibitors” (Dana-Farber Cancer Institute, Inc., priority 2003, dated 2009)

T1: caspase-9 (Homo sapiens, UniProt P55211)
T1 construct: endogenous in cells; host or cells: 293T
T1 sequence (P55211 1-416): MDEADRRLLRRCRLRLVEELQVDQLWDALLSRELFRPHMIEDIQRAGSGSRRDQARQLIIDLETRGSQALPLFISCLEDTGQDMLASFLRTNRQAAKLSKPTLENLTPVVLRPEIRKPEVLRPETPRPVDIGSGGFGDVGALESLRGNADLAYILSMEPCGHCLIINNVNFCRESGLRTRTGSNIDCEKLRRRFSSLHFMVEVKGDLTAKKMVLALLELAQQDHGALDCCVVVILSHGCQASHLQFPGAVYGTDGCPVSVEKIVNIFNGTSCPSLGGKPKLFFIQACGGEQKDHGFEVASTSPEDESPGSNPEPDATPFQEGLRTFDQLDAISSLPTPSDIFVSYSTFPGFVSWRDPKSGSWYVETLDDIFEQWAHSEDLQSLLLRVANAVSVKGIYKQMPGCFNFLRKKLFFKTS

B1: Bcl2L12-ΔBH2ΔP-r: V5 tagged truncation mutant of human Bcl2L12, human amino acid sequence 1-267 (protein)
chain: MGRPAGLFPPLCPFLGFRPEACWERHMQIERAPSVPPFLRWAGYRPGPVRRRGKVELIKFVRVQWRRPQVEWRRRRWGPGPGASMAGSEELGLREDTLRVLAAFLRRGEAAGSPVPTPPRSPAQEEPTDFLSRLRRCLPCSLGRGAAPSESPRPCSLPIRPCYGLEPGPATPDFYALVAQRLEQLVQEQLKSPPSPELQGPPSTEKEAILRRLVALLEEEAEVINQKLASDPALRSKLVRLSSDSFARLVELFCSRDDSSRPSRACP
modifications: left off: small tags and cut ends
B2: Bcl2L12-ΔBH2ΔP-rΔIHD: V5 tagged truncation mutant of human Bcl2L12, human amino acid sequence 1-167 (protein)
chain: MGRPAGLFPPLCPFLGFRPEACWERHMQIERAPSVPPFLRWAGYRPGPVRRRGKVELIKFVRVQWRRPQVEWRRRRWGPGPGASMAGSEELGLREDTLRVLAAFLRRGEAAGSPVPTPPRSPAQEEPTDFLSRLRRCLPCSLGRGAAPSESPRPCSLPIRPCYGLEP
modifications: left off: small tags and cut ends
B3: IRF3: IRF3 polypeptide expressed from expression vector; candidate gene of the 19q13.3 amplicon (protein, UniProt Q14653 1-427, looked up)
Interferon regulatory factor 3: MGTPKPRILPWLVSQLDLGQLEGVAWVNKSRTRFRIPWKHGLRQDAQQEDFGIFQAWAEATGAYVPGRDKPDLPTWKRNFRSALNRKEGLRLAEDRSKDPHDPHKIYEFVNSGVGDFSQPDTSPDTNGGGSTSDTQEDILDELLGNMVLAPLPDPGPPSLAVAPEPCPQPLRSPSLDNPTPFPNLGPSENPLKRLLVPGEEWEFEVTAFYRGRQVFQQTISCPEGLRLVGSEVGDRTLPGWPVTLPDPGMSLTDRGVMSYVRHVLSCLGGGLALWRAGQWLWAQRLGHCHTYWAVSEELLPNSGHGPDGEVPKDKEGGVFDLGPFIVDLITFTEGSGRSPRYALWFCVGESWPQDQPWTKRLVMVKVVPTCLRALVEMARVGGASSLENTVDLHISNSHPLSLTSDQYKAYLQDLVEGMDFQGPGES
B4: R-RAS: R-RAS polypeptide over-expressed from expression vector; candidate gene of the 19q13.3 amplicon (protein, UniProt P10301 1-215, looked up)
Ras-related protein R-Ras: MSSGAASGTGRGRPRGGGPGPGDPPPSETHKLVVVGGGGVGKSALTIQFIQSYFVSDYDPTIEDSYTKICSVDGIPARLDILDTAGQEEFGAMREQYMRAGHGFLLVFAINDRQSFNEVGKLFTQILRVKDRDDFPVVLVGNKADLESQRQVPRSEASAFGASHHVAYFEASAKLRLNVDEAFEQLVRAVRKYQEQELPPSPPSAPRKKGGGCPC

Key:
[1] = test system: Ink4a/Arf deficient embryonic fibroblasts; assay: Colony formation of Ink4a/Arf deficient embryonic fibroblasts; assay type: cell-based; details: about 300 cells per 6 well plate; vector only about 13
Description: In addition, Ink4a/Arf deficient embryonic fibroblasts were transfected with vector only or a vector encoding a Bcl2L12 polypeptide or Bcl2 polypeptide. Once the cells were transfected, the number of colonies formed in cultures (about 300 cells per 6 well plate) was determined. Expression of Bcl2L12 polypeptide promoted growth of Ink4a/Arf deficient embryonic fibroblasts. […] In a similar experiment, Ink4a/Arf deficient embryonic fibroblasts were co-transfected with a vector encoding H-RasV12 and either a vector only, vector encoding Bcl2L12 polypeptide, or a vector encoding Bcl2 polypeptide. Once the cells were transfected, the number of foci formed per transfection was determined. Expression of Bcl2L12 polypeptide or Bcl2 polypeptide in combination with H-RasV12 expression promoted growth of Ink4a/Arf deficient embryonic fibroblasts (about 1.5 to 2 fold more foci per transfection for cells expressing Bcl2L12 polypeptide or Bcl2 polypeptide compared to control pBabe cells).

[2] = test system: Ink4a-/-/Arf-/- astrocytes; assay: Growth of transduced Ink4a-/-/Arf-/- astrocytes under normal and low-serum conditions; assay type: cell-based, mouse; details: over-expression, 10% FBS, vs vector only
Text: The Bcl2L12-V5, R-RAS, and IRF3 nucleic acid sequences were cloned into expression vectors. Controls included expression vectors containing EGFR or Bcl2 nucleic acid sequences. The encoded polypeptides were expressed in primary astrocytes and tested for cell growth, transformation, and apoptosis activities. Primary astrocytes deficient for Ink4a/Arf (e.g., Ink4a^−/−/Arf^−/− astrocytes) were used given the prominence of this tumor suppressor lesion in advanced human gliomas. The following was performed to assess growth characteristics under normal growth conditions. Mouse Ink4a^−/−/Arf^−/− astrocytes were retro-virally transduced with pBabe vector alone; Bcl2L12-V5 nucleic acid; R-RAS nucleic acid; IRF3 nucleic acid; EGFR* nucleic acid; or Bcl2 nucleic acid. After retro-viral infection, transduced mouse Ink4a^−/−/Arf^−/− astrocytes were subjected to puromycin (2 μg/mL) selection for four days and plated at a density of 1×10^5 cells/10 cm dish using 10% FBS-DMEM medium. All transduced Ink4a^−/−/Arf^−/− astrocytes were counted each day for five days to determine cell numbers (mean±S.D.; three independent experiments with each being performed in triplicate).
The following was performed to assess growth characteristics under low-serum growth conditions. Retro-virally transduced mouse Ink4a^−/−/Arf^−/− astrocytes (1×10^6 cells/10 cm dish) were allowed to attach onto plates in 10% FBS-DMEM medium for five hours. After five hours, the medium was changed to 0.1% FBS-DMEM, and the cells were allowed to grow for three days. After three days in 0.1% FBS, the cells were counted to determine cell numbers (mean±S.D.; three independent experiments with each being performed in triplicate). The number of Ink4a^−/−/Arf^−/− astrocytes infected with pBabe-vector was set to 1.0.

[3] = test system: Ink4a-/-/Arf-/- astrocytes; assay: Annexin V staining of STS-treated Ink4a/Arf deficient astrocytes (FACS); assay type: cell-based, mouse; details: 100 nM staurosporine one day; control cultures about 17-22 percent
Description: The following experiments were performed to determine whether the Bcl2L12 polypeptide influenced cell survival or apoptosis. Ink4a^−/−/Arf^−/− astrocytes retro-virally infected with vector alone (pBabe) or vector containing Bcl2 nucleic acid, Bcl2L12-V5 nucleic acid, R-RAS nucleic acid, or IRF3 nucleic acid were […] After this one day incubation, the cells were stained with annexin V (Roche). Annexin V-positive cells were determined by FACScan analysis (mean±S.D.; three independent experiments with each being performed in triplicate).
After STS treatment, the cells were analyzed for apoptosis by assessing annexin V binding and DNA fragmentation using a FACS based analysis.

caspase-9 = biological target: T1, caspase-9; assay: Caspase-9 in vitro cleavage and LEHDase activity assay with 293T cells; assay type: cell-based; details: V5 tagged constructs; vector only about 420 RFUs
Text: To determine if Bcl2L12 polypeptides could-regulate-the activity of caspase-9, a cell-free system was used in which exogenously added dATP and cytochrome c induced the activation of [^35S] labeled in vitro translated caspase-9. […] To confirm the inhibitory effect of Bcl2L12 polypeptides on caspase-9 maturation, 293T cells ectopically expressing Bcl2L12-V5 polypeptides where either subjected to an in vitro cleavage assay or to an activity assay using the caspase-9 specific fluorogenic peptide LEHD.
In addition, vectors encoding V5 tagged wild-type human Bcl2L12 polypeptide (WT; human amino acid sequence 1-334) and three V5 tagged truncation mutants of human Bcl2L12 (Bcl2L12-ΔBH2 polypeptide, human amino acid sequence 1-310; Bcl2L12-ΔBH2ΔP-r polypeptide, human amino acid sequence 1-267; and Bcl2L12-ΔBH2ΔP-rΔIHD polypeptide, human amino acid sequence 1-167) were made (FIG. 4A). These vectors expressed the appropriately sized polypeptides when translated in vitro or when expressed in 293T cells.

[4] = test system: Ink4a-/-/Arf-/- mouse embryo fibroblasts; assay: Focus formation in cooperation with activated H-Ras in Ink4a-/-/Arf-/- mouse embryo fibroblasts; assay type: cell-based; details: cotransfected with H-Ras G12V, vs pBabe
Description: The oncogenic potential of these genes was determined directly through their capacity to cooperate with activated H-RAS to effect the malignant transformation of primary Ink4a^−/−/Arf^−/− cells. Briefly, Ink4a^−/−/Arf^−/− mouse embryo fibroblasts (MEFs) were seeded at 8×10^5 cells/10 cm dish and grown in 10% FBS-DMEM for one day and then cotransfected with 1.5 μg of activated H-Ras^G12V and 1.5 μg of either pBabe, Bcl2, Bcl2L12-V5, R-RAS, or IRF3 nucleic acid using Lipopectamine-plus reagent (Invitrogen). One day after cotransfection, each Ink4a^−/−/ARF^−/− MEF was splitted 1:3 ratio and refed with 10% FBS-DMEM every 3-4 day for ten days. After staining cells with crystal violet solution, foci were counted to determine transformation efficiency (mean±S.D.; three independent experiments with each being done in duplicate). The numbers of foci from cells cotransfected with H-Ras^G12V and pBabe vector were set to 100%.
In addition, Ink4a/Arf deficient embryonic fibroblasts were transfected with vector only or a vector encoding a Bcl2L12 polypeptide or Bcl2 polypeptide. Once the cells were transfected, the number of colonies formed in cultures (about 300 cells per 6 well plate) was determined. Expression of Bcl2L12 polypeptide promoted growth of Ink4a/Arf deficient embryonic fibroblasts. […] Once the cells were transfected, the number of foci formed per transfection was determined. […]

caspase-9 activity (caspase-9) | Molecule | number of colonies [1] | growth / proliferation under normal growth conditions [2] | annexin-V positive cells [3] | RAS-induced focus formation increase [4]
 | Bcl2: Bcl2 polypeptide expressed from control expression vector [reference compound] | about 10 colonies | failed to exhibit a pro-proliferative response | 2-3% | 
about 130 RFUs | B1 |  |  |  | 
about 160 RFUs | B2 |  |  |  | 
 | B3 |  | failed to exhibit a pro-proliferative response | 14-16% | did not exhibit any cooperative activity
 | B4 |  | moderate increase in proliferation | 10-20% | did not exhibit any cooperative activity
